Target: Carcinoembryonic antigen (CEA) (UniProt P06731 35-685)
Experiment: electrochemical aptasensor (CV, DPV); immobilized aptamer; current falls with CEA; LOD 7.6 ng/mL (not a Kd); 0.05 M PBS pH 7.0, 0.1 M KCl, 5 mM [Fe(CN)6]3-/4-; temperature not stated

Chain of Carcinoembryonic antigen (CEA) (P06731 35-685): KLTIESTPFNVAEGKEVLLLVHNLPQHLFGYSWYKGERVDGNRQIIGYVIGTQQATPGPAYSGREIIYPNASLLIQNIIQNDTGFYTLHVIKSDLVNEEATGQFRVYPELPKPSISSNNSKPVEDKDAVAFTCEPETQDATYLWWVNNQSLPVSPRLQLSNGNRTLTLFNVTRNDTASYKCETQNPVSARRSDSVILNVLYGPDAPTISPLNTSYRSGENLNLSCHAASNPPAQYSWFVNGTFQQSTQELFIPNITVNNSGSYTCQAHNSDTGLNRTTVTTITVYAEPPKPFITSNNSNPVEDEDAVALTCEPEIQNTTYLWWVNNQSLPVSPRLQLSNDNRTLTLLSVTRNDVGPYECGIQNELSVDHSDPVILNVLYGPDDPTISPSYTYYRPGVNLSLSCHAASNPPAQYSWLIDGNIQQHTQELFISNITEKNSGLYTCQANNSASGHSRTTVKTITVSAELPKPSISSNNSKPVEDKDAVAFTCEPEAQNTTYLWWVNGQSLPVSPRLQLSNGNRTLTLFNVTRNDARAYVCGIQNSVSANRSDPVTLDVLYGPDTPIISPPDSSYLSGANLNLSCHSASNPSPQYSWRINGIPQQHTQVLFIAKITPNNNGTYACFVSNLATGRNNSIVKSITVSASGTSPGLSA

B1: CEA aptamer (ssDNA)
DNA: GTGACGCTCCTAACGCTGACTCAGGTGCAGTTCTCGACTCGGTCTTGATGTGGGTCCTGTCCGTCCGAACCAATC
modifications: 5'-NH2
B1: binds.
